Tested on: F1*sub RNA substrate (template-directed ligation)
Assay: fraction ligated after 30 min (ligated reads / total reads); higher = more ligase activity; sequences stand for … in GAGACCGCAACTGAAAAGTTGT…AGTTCTGCACGTAGAAGCAAAAGGC
Conditions: 42 °C
Outline: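 Ribozyme variants were transcribed with T7 from PCR-amplified oligo-pool templates and gel-purified. Ligated and unligated bands, separated on gel, were reverse transcribed with barcoded primers and sequenced on a MiSeq, with core bases filtered at quality ≥20. Fraction ligated per variant was computed as ligated reads divided by total reads.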

| Sequence | fraction ligated |
| --- | --- |
| ATCACTTGTCGTAAGACCTTGGATGGGTTGA [3d239] | 0.716 |
| TATCCTGTCTAAGACACTTTGGATGGGTTGA [3d953] | 0.785 |
| TATCACTTCGTAAGACACTTGGATGGGTTGA [3d1320] | 0.796 |
| TATCACTGTCGTAAGACACTTGATGGGTTGA [3d1441] | 0.77 |
| TATCACTTGCTAAGACACTTGGATGGGTTGA [3d1606] | 0.782 |
| TATACTTGTCGTAAGACACTTGGATGGGTTA [3d930] | 0.0948 |
| TATCTTGTCGTAAGACACTTTGGATGGGTTA [3d756] | 0.722 |
| TATCCTGTCGTAAGACACTTTGGTGGGTTGA [3d963] | 0.274 |
| TATCACTTGTCGTAAGACACTGGATGGGTTG [3d2237] | 0.778 |
| TATCACTTGTGTAAGCCTTTGGATGGGTTGA [3d1755] | 0.76 |
| ATCACTTGTCGTAAACACTTTGATGGGTTGA [3d215] | 0.521 |
| TATCCTTGTCGTAAGACACTTTGGAGGGTTG [3d1116] | 0.00286 |
| TTCCTTGTCGAAGACACTTTGGATGGGTTGA [3d303] | 0.796 |
| ATCACTTGTCGTGACACTTTGGATGGGTTGA [3d198] | 0.746 |
| TACCTTGTCGTAAGACACTTTGGATGGGTTA [3d545] | 0.548 |
| TATCACTTTCGTAAACATTTGGATGGGTTGA [3d1521] | 0.787 |
| TATCACTTGTCGTAAGACATTTGGATGGTTG [3d2228] | 0.0492 |
| TACACTTGTCGTAAGACCTTTGGATGGGTTA [3d705] | 0.136 |
| TATCACTTGTCGTAAGACATTGATGGGTTGA [3d2208] | 0.778 |
| TACACTTGCGAAGACACTTTGGATGGGTTGA [3d603] | 0.157 |
| TATCACTTGTCGTAGACACTTTGGATGGGTTG [2d233] | 0.843 |
| TATCATTGTGTAAGCACTTTGGATGGGTTGA [3d1176] | 0.86 |
| TTCACTTTCGTAAGACACTTTGGTGGGTTGA [3d366] | 0.00787 |

| Sequence | fraction ligated |
| --- | --- |
| TATCACTTGTCGTAAGACATTTGGATGGTTGA [2d273] | 0.121 |
| ATCACTTGTCGTAAGACTTTGGATGGGTTGA [3d221] | 0.727 |
| TATCACTGTCGTAAGAACTTGGATGGGTTGA [3d1419] | 0.847 |
| TATCATTGTGTAAACACTTTGGATGGGTTGA [3d1175] | 0.82 |
| TACACTTGTCGTAAGACACTTTGGAGGTTGA [3d731] | 0 |
| TATCACTTGTCGTAGAACTTGGATGGGTTGA [3d2014] | 0.845 |
| TATCACTTGTCGTAAGCACTTTGGATGGGTT [3d2150] | 0.534 |
| TATCACTTGTCGTAAGAACTTTGGATGGTTGA [2d259] | 0.139 |
| ATCACTGTCGTAGACACTTTGGATGGGTTGA [3d111] | 0.824 |
| TATCATTGTCTAAGACACTTTGGATGGGTTG [3d1200] | 0.769 |
| TATCACTTTGTAAGACCTTTGGATGGGTTGA [3d1470] | 0.769 |
| TATCACTTTCGTAAGACACTTTGGTGGTTGA [3d1575] | 0.025 |
| TTCACTTGTCGTAAGACACTTTGGTGGGTTG [3d500] | 0.0269 |
| TATCACTTGTGTAAGAACTTTGGAGGGTTGA [3d1768] | 0.0385 |
| TTCACTTTCGTAAGACCTTTGGATGGGTTGA [3d362] | 0.437 |
| ATCACTTGTCGTAGACACTTTGGAGGGTTGA [3d207] | 0.211 |
| TATCCTTGTCGTAAGCACTTTGGATGGGTTA [3d1073] | 0.381 |
| TATCACTTGCGTAGACACTTTGGATGGGTTA [3d1637] | 0.781 |
| ATCACTTGTCTAAGACACTTGGATGGGTTGA [3d178] | 0.73 |
| TTCACTTGTCAAGACACTTTGGATGGGTTGA [3d402] | 0.719 |
| ATCACTTGTCGAAGACACTTGGATGGGTTGA [3d191] | 0.728 |
| TATCACTTGTCGTAAGCTTTGGATGGGTTGA [3d2105] | 0.759 |
| TATCACTTGCGTAAAACTTTGGATGGGTTGA [3d1639] | 0.858 |

| Sequence | fraction ligated |
| --- | --- |
| ATCACTTGCGTAAGAACTTTGGATGGGTTGA [3d146] | 0.835 |
| TATCACTTGTCGTAGACCTTTGGATGGTTGA [3d2025] | 0.344 |
| TTCACTTGTCGTAAGACCTTTGGAGGGTTGA [3d473] | 0.073 |
| TATCACTTGTCTAAGACCTTTGGATGGGTTG [3d1870] | 0.755 |
| TACACTTGTCGTAACACTTTGGATGGGTTGA [3d660] | 0.00473 |
| TATCACTGTCGTAAGAACTTTGGTGGGTTGA [3d1421] | 0.079 |
| TATCACTTGTCTAAGAACTTTGGATGGGTTA [3d1862] | 0.735 |
| TATCATTGTCTAAACACTTTGGATGGGTTGA [3d1189] | 0.785 |
| TACACTTGTCGTAAGACCTTTGATGGGTTGA [3d701] | 0.0781 |
| TATCACTTGTCGTAAGAACTTTGGATGGGTT [3d2181] | 0.219 |
| TATCACTTGCGTAGACACTTTGGATGGGTTG [3d1638] | 0.816 |
| TATCACTTGTCAAGCACTTTGGATGGGTTGA [3d1812] | 0.785 |
| TACACTTGCGTAAGCACTTTGGATGGGTTGA [3d606] | 0.764 |
| ATCACTGTCGTAAGACACTTTGGATGGTTGA [3d121] | 0.46 |
| TATCACTTGTGTAAGAATTTGGATGGGTTGA [3d1764] | 0.863 |
| TTACTTGTCGTAAGACACTTTGATGGGTTGA [3d292] | 0.0869 |
| TATACTTGTCGTAAGACACTTTGGTGGGTTGA [2d85] | 0.0569 |
| TATCACTTTCTAAGACACTTTGGATGGGTTGA [2d148] | 0.794 |
| TACACTTGCGTAAGACATTTGGATGGGTTGA [3d609] | 0.422 |
| TATACTTGTCGTAAGACACTTTGGATGGGTTG [2d89] | 0.733 |
| TATCACTTTCGTAGACACTTTGGAGGGTTGA [3d1515] | 0.0412 |
| TATCACTTGTCGTAAGCCTTTGGAGGGTTGA [3d2117] | 0.252 |
| TTCACTTGTCGTAAGCACTTTGGATGGTTGA [3d459] | 0.164 |

| Sequence | fraction ligated |
| --- | --- |
| TATCACTTGTCTAAGAACTTTGATGGGTTGA [3d1858] | 0.777 |
| TATCACTTGTCGTAAGCCTTTGGTGGGTTGA [3d2116] | 0.243 |
| TATCACTTGTCTAAGACACTTTGGTGGTTGA [3d1892] | 0.104 |
| TATCACTTGTCGTAAGACACTTTGAGGGTTA [3d2265] | 0.0074 |
| TATCACTTTCGTAAGACACTTTGGATGGTTG [3d1582] | 0.0551 |
| ATCACTTGTCGTAAGACACTTTGGATGTGGTTGA [s38] | 0.693 |
| TACACTGTCGTAAGACACTTTGGAGGGTTGA [3d581] | 0.292 |
| ATCACTGTCGTAAGACACTTTGGATGGGTTG [3d123] | 0.74 |
| TATCACTTGCGAAGACCTTTGGATGGGTTGA [3d1617] | 0.779 |
| TTCACTTTCGTAAGACACTTTGATGGGTTGA [3d365] | 0.0352 |
| TATCACTTGTCGTAAAACTTTGGATGGGTTG [3d2066] | 0.791 |
| TACACTTGTCGTAAGACTTTGGATGGGTTGA [3d682] | 0.409 |
| TATACTTGTCGTAAGACACTTTGGAGGGTTGA [2d86] | 0.0419 |
| TATACTTGTCGAAACACTTTGGATGGGTTGA [3d858] | 0.756 |
| TATCACTTGTCGTAAGACACTTTGTGGTTGA [3d2261] | 0.0088 |
| TATCACTTGTCGTAGCACTTTGGATGGGTTG [3d2012] | 0.792 |
| ATCACTTGTCGTAAGACCTTTGGATGGGTTA [3d244] | 0.645 |
| TACATTGTGTAAGACACTTTGGATGGGTTGA [3d550] | 0.0317 |
| TATCACTTGTGTAAGAACTTGGATGGGTTGA [3d1765] | 0.84 |
| TATCACTTGTCGTAAGCATTTGGATGGGTTA [3d2126] | 0.784 |
| TATCACTTGTCTAAGACATTTGATGGGTTGA [3d1872] | 0.345 |
| TATCACTTGCGTAAGACATTTGGATGGTTGA [3d1678] | 0.16 |
| TATCACTTGTGTAAGAACTTTGGATGGGTTG [3d1771] | 0.85 |

| Sequence | fraction ligated |
| --- | --- |
| TATCACTTGTCTGACACTTTGGATGGGTTGA [3d1823] | 0.77 |
| TATACTTGTCGTAAGACACTTGGATGGGTTGA [2d83] | 0.785 |
| ATCACTTGTCGTAAGACATTTGGAGGGTTGA [3d249] | 0.0168 |
| TATCACTTGTCGTAAGAATTTGATGGGTTGA [3d2153] | 0.757 |
| TATCACTTTCGTAAGACACTTTGGTGGGTTG [3d1577] | 0.0247 |
| TATACTTGTCGAAGCACTTTGGATGGGTTGA [3d859] | 0.703 |
| ATCACTTGTCGTAAACACTTTGGATGGGTTGA [2d13] | 0.78 |
| TATACTTGTCGTAAACACTTGGATGGGTTGA [3d886] | 0.227 |
| TATCATTTCGAAGACACTTTGGATGGGTTGA [3d1142] | 0.812 |
| ATCCTTGTCGTAAGAACTTTGGATGGGTTGA [3d76] | 0.719 |
| ATCCTTGTCGTAAGACATTTGGATGGGTTGA [3d78] | 0.725 |
| TATCCTTGTCGTAGACACTTTGGTGGGTTGA [3d1050] | 0.26 |
| TATCACTTCTAAGACACTTTGGATGGGTTGA [3d1312] | 0.774 |
| TTCACTTGTCGTAAGACACTTTGGAGGGTTGA [2d43] | 0.227 |
| TATACTTGTCGTAAGACCTTTGGATGGGTTG [3d917] | 0.719 |
| TATCCTTGTCGTAAGCACTTTGATGGGTTGA [3d1069] | 0.754 |
| TATACTTGTCGAAGACACTTTGATGGGTTGA [3d864] | 0.755 |
| TTCACTTGTGTAAGCACTTTGGATGGGTTGA [3d391] | 0.775 |
| TATCCTTGTCGTAGACACTTTGGATGGGTTGA [2d96] | 0.79 |
| TATACTTGTCGTAAGACATTTGGATGGTTGA [3d922] | 0.0978 |
